Measured values taken from publication PMC9943652.

Biological target: coreTFIIH (7-subunit: XPB, XPD, p62, p52, p44, p34, p8);XPG (human;human) (UniProt P19447+P18074+P32780+Q92759+Q13888+Q13889+Q6ZYL4+P28715)
Experiment: EMSA

Sequence | binding signal (fold lower Kd than XPG alone) (cholesterol moiety at N (between S12 and S13), position 11 from ss/ds junction) | binding signal (fold lower Kd than XPG alone) (cholesterol moiety at N (between S10 and S11), position 4 from ss/ds junction)
TTTTTTTTTTTTTTTTTTTTTTTTTTTTTNTTTTTTTTTTGCCTCGCTGCCGTCGCCA / TGGCGACGGCAGCGAGGC [Chol11] | 8 | –
TTTTTTTTTTTTTTTTTTTTTTTTTTTTTTTTTTTTNTTTGCCTCGCTGCCGTCGCCA / TGGCGACGGCAGCGAGGC [Chol4] | – | 7
